{"source": "paper PMC12218921", "about": "“An adaptive peptide-binding site in ubiquitin receptor hRpn13 revealed by structural studies” (Nature Communications, 2025)", "test_system": "hRpn13 Pru", "test": "1H-15N HSQC NMR of 15N-labeled hRpn13 Pru (1–150)", "format": "binding, human", "details": "0.1 mM 15N-labeled protein, 600 MHz, 25 °C, pH 6.5", "data": [{"molecule": "hRpn13_ΔMTT: hRpn13 Pru variant with ENT M1 – T3, ^aG, and ^bP deleted (protein, left off: GST, N-terminal, cleaved, hRpn13 Pru variant with ENT M1 – T3, ^aG, and ^bP deleted) GSSGALFPSLVPGSRGASNKYLVEFRAGKMSLKGTTVTPDKRKGLVYIQQTDDSLIHFCWKDRTSGNVEDDLIIFPDDCEFKRVPQCPSGRVYVLKFKAGSKRLFFWMQEPKTDQDEEHCRKVNEYLNNPPMPGALGASGSSGHELSAL", "values": [{"measurement": "HSQC differences of hRpn13_ΔMTT versus hRpn13 (1–150)", "result": "changes for a subset of amino acids in the Pru helix and proteasome-binding surface"}]}]}
